Experimental data reported in IntAct's records for PubMed 20531387.

B1: Centrosomal P4.1-associated protein (Homo sapiens), Q9HC77 (parent)
chain: MFLMPTSSELNSGQNFLTQWMTNPSRAGVILNRGFPILEADKEKRAAVDISTSFPIKGTHFSDSFSFINEEDSLLEEQKLESNNPYKPQSDKSETHTAFPCIKKGPQVAACHSAPGHQEENKNDFIPDLASEFKEGAYKDPLFKKLEQLKEVQQKKQEQLKRQQLEQLQRLMEEQEKLLTMVSGQCTLPGLSLLPDDQSQKHRSPGNTTTGERATCCFPSYVYPDPTQEETYPSNILSHEQSNFCRTAHGDFVLTSKRASPNLFSEAQYQEAPVEKNNLKEENRNHPTGESILCWEKVTEQIQEANDKNLQKHDDSSEVANIEERPIKAAIGERKQTFEDYLEEQIQLEEQELKQKQLKEAEGPLPIKAKPKQPFLKRGEGLARFTNAKSKFQKGKESKLVTNQSTSEDQPLFKMDRQQLQRKTALKNKELCADNPILKKDSKARTKSGSVTLSQKPKMLKCSNRKSLSPSGLKIQTGKKCDGQFRDQIKFENKVTSNNKENVTECPKPCDTGCTGWNKTQGKDRLPLSTGPASRLAAKSPIRETMKESESSLDVSLQKKLETWEREKEKENLELDEFLFLEQAADEISFSSNSSFVLKILERDQQICKGHRMSSTPVKAVPQKTNPADPISHCNRSEDLDHTAREKESECEVAPKQLHSLSSADELREQPCKIRKAVQKSTSENQTEWNARDDEGVPNSDSSTDSEEQLDVTIKPSTEDRERGISSREDSPQVCDDKGPFKDTRTQEDKRRDVDLDLSDKDYSSDESIMESIKHKVSEPSRSSSLSLSKMDFDDERTWTDLEENLCNHDVVLGNESTYGTPQTCYPNNEIGILDKTIKRKIAPVKRGEDLSKSRRSRSPPTSELMMKFFPSLKPKPKSDSHLGNELKLNISQDQPPGDNARSQVLREKIIELETEIEKFKAENASLAKLRIERESALEKLRKEIADFEQQKAKELARIEEFKKEEMRKLQKERKVFEKYTTAARTFPDKKEREEIQTLKQQIADLREDLKRKETKWSSTHSRLRSQIQMLVRENTDLREEIKVMERFRLDAWKRAEAIESSLEVEKKDKLANTSVRFQNSQISSGTQVEKYKKNYLPMQGNPPRRSKSAPPRDLGNLDKGQAASPREPLEPLNFPDPEYKEEEEDQDIQGEISHPDGKVEKVYKNGCRVILFPNGTRKEVSADGKTITVTFFNGDVKQVMPDQRVIYYYAAAQTTHTTYPEGLEVLHFSSGQIEKHYPDGRKEITFPDQTVKNLFPDGQEESIFPDGTIVRVQRDGNKLIEFNNGQRELHTAQFKRREYPDGTVKTVYANGHQETKYRSGRIRVKDKEGNVLMDTEL
B2: Centrosomal P4.1-associated protein (Homo sapiens), Q9HC77 (parent)
chain: B1 chain
partner: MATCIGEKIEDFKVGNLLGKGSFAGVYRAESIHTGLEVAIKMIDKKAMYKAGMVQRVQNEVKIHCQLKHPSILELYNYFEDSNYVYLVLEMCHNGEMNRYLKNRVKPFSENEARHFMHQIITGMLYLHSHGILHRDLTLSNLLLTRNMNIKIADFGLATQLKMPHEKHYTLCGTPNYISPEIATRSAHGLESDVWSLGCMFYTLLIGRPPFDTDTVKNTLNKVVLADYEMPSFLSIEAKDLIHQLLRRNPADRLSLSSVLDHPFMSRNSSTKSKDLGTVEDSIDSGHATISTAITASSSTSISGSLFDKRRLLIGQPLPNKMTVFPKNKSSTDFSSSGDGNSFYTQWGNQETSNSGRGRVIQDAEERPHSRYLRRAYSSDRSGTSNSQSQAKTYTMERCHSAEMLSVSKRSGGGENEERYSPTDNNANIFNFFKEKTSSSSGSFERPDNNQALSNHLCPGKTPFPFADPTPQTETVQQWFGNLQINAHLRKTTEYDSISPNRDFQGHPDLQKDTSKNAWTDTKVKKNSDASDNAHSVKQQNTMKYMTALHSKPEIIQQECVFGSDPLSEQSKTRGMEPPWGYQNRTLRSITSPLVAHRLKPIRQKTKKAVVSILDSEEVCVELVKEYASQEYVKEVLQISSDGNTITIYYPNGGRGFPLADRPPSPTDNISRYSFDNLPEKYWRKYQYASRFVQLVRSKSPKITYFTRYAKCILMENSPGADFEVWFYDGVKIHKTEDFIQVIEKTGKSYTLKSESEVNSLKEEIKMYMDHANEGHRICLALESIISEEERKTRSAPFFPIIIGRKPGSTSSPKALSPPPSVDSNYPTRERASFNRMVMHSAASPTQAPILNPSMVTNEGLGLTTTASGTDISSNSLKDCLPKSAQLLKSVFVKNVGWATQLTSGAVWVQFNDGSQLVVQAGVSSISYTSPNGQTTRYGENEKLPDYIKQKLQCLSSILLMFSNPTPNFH

Variants of: B1
Settings: with plk2_human PLK2, Q9NYY3
Sequence of plk2_human PLK2, Q9NYY3 (Q9NYY3 whole entry, looked up): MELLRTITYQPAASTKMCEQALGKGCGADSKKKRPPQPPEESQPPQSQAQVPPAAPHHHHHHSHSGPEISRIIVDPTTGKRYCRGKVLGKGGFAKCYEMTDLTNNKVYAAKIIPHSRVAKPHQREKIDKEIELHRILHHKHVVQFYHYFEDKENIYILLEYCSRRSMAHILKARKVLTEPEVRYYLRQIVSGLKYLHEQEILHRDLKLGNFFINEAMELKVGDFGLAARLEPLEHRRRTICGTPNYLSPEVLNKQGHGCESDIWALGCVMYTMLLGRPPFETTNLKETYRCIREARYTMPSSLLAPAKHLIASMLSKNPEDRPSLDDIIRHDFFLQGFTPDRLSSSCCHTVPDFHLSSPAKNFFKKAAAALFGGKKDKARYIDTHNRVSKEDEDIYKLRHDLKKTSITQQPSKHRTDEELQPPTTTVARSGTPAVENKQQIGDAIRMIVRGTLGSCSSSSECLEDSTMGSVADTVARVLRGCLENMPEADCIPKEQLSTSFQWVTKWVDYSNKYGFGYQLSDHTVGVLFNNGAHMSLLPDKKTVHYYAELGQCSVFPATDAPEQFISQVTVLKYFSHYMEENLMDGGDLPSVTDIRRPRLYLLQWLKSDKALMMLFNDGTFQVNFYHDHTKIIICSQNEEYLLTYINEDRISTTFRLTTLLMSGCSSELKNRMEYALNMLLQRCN

Row | effect of a mutation on the interaction | Variant
1 | decreasing interaction | S595A

Variants of: B1
Settings: with plk2_human PLK2, Q9NYY3
Remark: another data set of the same source

Row | effect of a mutation on the interaction | Variant
2 | disrupting interaction | S595A
3 | disrupting interaction | S589A

Variants of: B1
Settings: with plk2_human PLK2, Q9NYY3
Remark: another data set of the same source

Row | effect of a mutation on the interaction | Variant
4 | decreasing interaction | S589A

Variants of: B2
Settings: with plk4_human PLK4, O00444

Row | effect of a mutation on the interaction | Variant
5 | disrupting interaction | S595A
6 | disrupting interaction | S589A
